Source: patent US20060286032A1, “A radiosotope-chitosan complex for treatment of prostate cancer” (priority 2003, published 2006)
Marks after values point to notes of the source that are not given here.

How the values were obtained:
[1] = Autoradiography, complex solution versus ^166Ho(NO3)3.5H2O solution not containing chitosan, injected into the prostate gland; assay type: in vivo, rats; conditions: for Radioactive concentration, Administration site / Radioactive concentration, End region of femur / Radioactive concentration, Liver / Radioactive concentration, Spine / Radioactive concentration, Kidney / Radioactive concentration, Spleen: 25 μl (about 100 μCi)
Experimental: To investigate advantages of the ^166Ho-chitosan complex, autoradiography was carried out for a group administered with the complex solution and a control group administered with a ^166Ho(NO3)3.5H2O solution not containing chitosan. In the complex solution administration group, 25 μl of the complex solution was administered, which was equal to about 100 μCi. The control group was administered with a ^166Ho(NO3)3.5H2O solution not containing chitosan with the same dosage and radioactive concentration as in the complex solution administration group. This test was carried out according to the same method as in Experimental Example 1, and each test drug was administered to the prostate gland. After 0.5, 2, 6 and 24 hrs, rats were sacrificed and evaluated by autoradiography. The measured radioactive concentrations (% ID/g) in various organs after injection of the complex solution and the ^166Ho(NO3)3.5H2O solution are given in Table 2, below.

[2] = Radioactive concentrations in collected organs and tissues by liquid scintillation counter after injection into the prostate gland; assay type: in vivo, SD rats; conditions: for Administered radioactivity retained in the prostate gland: until 144 hrs after administration
Experimental: After the complex solution was administered, accurate radioactive concentrations were measured in various organs. 25 μl of the complex solution as a test drug were administered to the prostate gland in the abdominal region of SD rats, which was equal to about 100 μCi. After 0.5, 2, 6, 24, 72 and 144 hrs, the rats were anesthetized with diethylether and exsanguinated by incision of abdominal aorta. Various organs and tissues were collected, which included blood, plasma, brain, thymus, heart, lung, liver, kidney, adrenal gland, spleen, pancreas, testes, prostate gland (including an administration site), seminal vesicle, epididymis, bladder, skeletal muscle, bones, bone marrow, skin, carcass, stomach, small intestine, rectum and large intestine. The collected organs and tissues were weighed, sectioned and homogenized. The whole sample or the supernatant was assayed for radioactivity using a liquid scintillation counter. The measured radioactive concentrations in various organs and tissues according to the time are given in Table 3 (% ID/g) and Table 4 (% of dose).

[3] = test system: AIT carcinoma (androgen-independent carcinoma cell line); experiment: Antitumor effect in AIT subcutaneous tumor model; assay type: in vivo, noble rats; conditions: for Tumor weight: four weeks after administration; for Tumor growth inhibition rate: four weeks, tumor weight vs control
Experimental: To evaluate the effect of the complex on hormone-independent prostate cancer, an AIT carcinoma (androgen-independent carcinoma cell line) was transplanted into noble rats, and the antitumor effect of the complex was examined.
An androgen-independent, prostate carcinoma cell line, AIT, which is derived from noble rats, was cultured in 10% FBS-containing DMEM at 37° under 5% CO2. The cultured carcinoma cells were suspended in sterile physiological saline at a density of 4×10^6 cells/ml, and 2×10^6 cells were subcutaneously transplanted into the lateral abdomen of male 5-week noble rats. When the long axis of the tumor was about 1 cm long (in this test, 14 days after transplantation), the rats were grouped according to the tumor mass. The kit prepared in Example 2 was used as a test drug, and was administered at the same dose as in Experimental Example 5, that is, 0.2 ml. The rats were divided into four groups: a control group (no treatment); two administration groups administered with the complex solution at 10 mCi and 20 mCi per 1 cm^3 tumor; and another administration group administered with a non-radioactive complex solution (Holmium-165 (^165Ho)-chitosan complex solution). Four weeks after administration with the complex solution, tumors were excised from the rats, and tumor growth inhibition rates were measured by weighing the tumors.

Holmium-166 (^166Ho)-Chitosan Complex [complex solution]
Radioactive concentration, Administration site ([1]; 30 min): 4149 ± 1563.2 % ID/g | Radioactive concentration, End region of femur ([1]; 30 min): 0.04 ± 0.015 % ID/g | Radioactive concentration, Liver ([1]; 30 min): 0.01 ± 0.004 % ID/g | Radioactive concentration, Spine ([1]; 30 min): 0.01 ± 0.002 % ID/g | Radioactive concentration, Administration site ([1]; 2 hrs): 3246 ± 764.0 % ID/g | Radioactive concentration, End region of femur ([1]; 2 hrs): 0.07 ± 0.013 % ID/g | Radioactive concentration, Liver ([1]; 2 hrs): 0.016 % ID/g | Radioactive concentration, Spine ([1]; 2 hrs): 0.02 ± 0.004 % ID/g | Radioactive concentration, Administration site ([1]; 6 hrs): 4815 ± 1177.4 % ID/g | Radioactive concentration, End region of femur ([1]; 6 hrs): 0.21 ± 0.101 % ID/g | Radioactive concentration, Kidney ([1]; 6 hrs): 0.02^b % ID/g | Radioactive concentration, Liver ([1]; 6 hrs): 0.04 ± 0.024 % ID/g | Radioactive concentration, Spine ([1]; 6 hrs): 0.05 ± 0.024 % ID/g | Radioactive concentration, Spleen ([1]; 6 hrs): 0.03 ± 0.027 % ID/g | Radioactive concentration, Administration site ([1]; 24 hrs): 3998 ± 705.1 % ID/g | Radioactive concentration, End region of femur ([1]; 24 hrs): 0.55 ± 0.324 % ID/g | Radioactive concentration, Kidney ([1]; 24 hrs): 0.03 ± 0.016 % ID/g | Radioactive concentration, Liver ([1]; 24 hrs): 0.04 ± 0.004 % ID/g | Radioactive concentration, Spine ([1]; 24 hrs): 0.14 ± 0.070 % ID/g | Radioactive concentration, Spleen ([1]; 24 hrs): 0.04 ± 0.010 % ID/g | Radioactivity retained in the administration site, the prostate gland ([1]; 24 hrs after being administered): ~90% | Radioactive concentration, Blood ([2]; 30 min after injection): 26 ± 10 % ID/g ×10^−4 | Radioactive concentration, Bones ([2]; 30 min after injection): 71 ± 55 % ID/g ×10^−4 | Radioactive concentration, Plasma ([2]; 30 min after injection): 44 ± 16 % ID/g ×10^−4 | Radioactive concentration, Blood ([2]; 2 hrs after injection): 19 ± 9 % ID/g ×10^−4 | Radioactive concentration, Bones ([2]; 2 hrs after injection): 189 ± 79 % ID/g ×10^−4 | Radioactive concentration, Plasma ([2]; 2 hrs after injection): 32 ± 11 % ID/g ×10^−4 | Radioactive concentration, Bone marrow ([2]; 6 hrs after injection): 17 % ID/g ×10^−4 | Radioactive concentration, Bones ([2]; 6 hrs after injection): 185 ± 107 % ID/g ×10^−4 | Radioactive concentration, Bone marrow ([2]; 24 hrs after injection): 32 ± 4 % ID/g ×10^−4 | Radioactive concentration, Bones ([2]; 24 hrs after injection): 711 ± 413 % ID/g ×10^−4 | Radioactive concentration in other tissues (other than prostate gland, carcass, liver) ([2]; 72 hrs after administration): less than 0.1% | Radioactive concentration, Bone marrow ([2]; 72 hrs after injection): 109 ± 40 % ID/g ×10^−4 | Radioactive concentration, Bones ([2]; 72 hrs after injection): 2343 ± 827 % ID/g ×10^−4 | Radioactive concentration, Bones ([2]; 144 hrs after injection): 1708 ± 506 % ID/g ×10^−4 | Radioactivity in major organs (brain, thymus, heart, lung, adrenal gland, spleen) and adjacent organs (bladder, rectum, testes, epididymis) ([2]; rat, in vivo): rarely detected | Administered radioactivity retained in the prostate gland [2]: over 98% | Administered radioactivity retained in the prostate gland ([2]; listed as radioisotope-chitosan complex): more than 98% | Tumor weight ([3]; 10 mCi per 1 cm^3 tumor): 2.1 ± 0.78 g | Tumor growth inhibition rate ([3]; 10 mCi per 1 cm^3 tumor): 90.7% | Tumor weight ([3]; 20 mCi per 1 cm^3 tumor): 0.7 ± 0.18 g | Tumor growth inhibition rate ([3]; 20 mCi per 1 cm^3 tumor): 96.7% | Inhibitory activity against the tumor growth ([3]; subcutaneous tumor model): higher than 90%
